Results taken from publication PMC4854488 (Biochemistry, 2016).
Positions count from the first letter of the chain named. Numbers in names are those of the source.

Key:
[1] = target: T1, oxalate decarboxylase (OxDC) (Bacillus subtilis, UniProt O34714, DEL162-162); experiment: X-ray crystal structure, […] Å; assay type: binding; conditions: Co(II)-substituted ΔE162 variant; oxalate end-on (monodentate) on Co(II) in N-terminal domain; cocrystallised, well pH 9.5, 17 °C
T1 construct: C-terminal His6 tag kept, expressed in E. coli BL21(DE3), Mn-containing (Co(II)-substituted for the crystal; model residues 6-382)

purified protein = substrate: O=C(O)C(=O)O; experiment: purified protein; conditions: 25 °C
[2] = ΔE162 variant, decarboxylase activity, Mn enzyme (1.3 Mn/monomer), 100 mM citrate pH 4.2, 300 uM o-phenylenediamine, pH 4.2
[3] = ΔE162 variant, oxidase activity, Mn enzyme (1.3 Mn/monomer), 50 mM succinate pH 4.0, O2 co-substrate, pH 4.0
[4] = decarboxylase activity, Mn enzyme (1.4 Mn/monomer), 100 mM citrate pH 4.2, 300 uM o-phenylenediamine, pH 4.2
[5] = oxidase activity, Mn enzyme (1.4 Mn/monomer), 50 mM succinate pH 4.0, O2 co-substrate, pH 4.0
[6] = DENS variant, decarboxylase activity, Mn enzyme (1.6 Mn/monomer), 100 mM citrate pH 4.2, 300 uM o-phenylenediamine, pH 4.2
[7] = DDNS variant, decarboxylase activity, Mn enzyme (1.5 Mn/monomer), 100 mM citrate pH 4.2, 300 uM o-phenylenediamine, pH 4.2
[8] = DDSN variant, decarboxylase activity, Mn enzyme (1.5 Mn/monomer), 100 mM citrate pH 4.2, 300 uM o-phenylenediamine, pH 4.2
[9] = DESN variant, decarboxylase activity, Mn enzyme (1.5 Mn/monomer), 100 mM citrate pH 4.2, 300 uM o-phenylenediamine, pH 4.2
[10] = DESN variant, oxidase activity, Mn enzyme (1.5 Mn/monomer), 50 mM succinate pH 4.0, O2 co-substrate, pH 4.0

For `O=C(O)C(=O)O` [oxalate], the “X-ray crystal structure, 2.6 Å” value [1] was “we observed an oxalate molecule bound within the N-terminal domain”.

B1: oxalate decarboxylase (OxDC) (Bacillus subtilis subsp. subtilis str. 168; DEL162-162) (protein)
chain: MKKQNDIPQPIRGDKGATVKIPRNIERDRQNPDMLVPPETDHGTVSNMKFSFSDTHNRLEKGGYAREVTVRELPISENLASVNMRLKPGAIRELHWHKEAEWAYMIYGSARVTIVDEKGRSFIDDVGEGDLWYFPSGLPHSIQALEEGAEFLLVFDDGSFSNSTFQLTDWLAHTPKEVIAANFGVTKEEISNLPGKEKYIFENQLPGSLKDDIVEGPNGEVPYPFTYRLLEQEPIESEGGKVYIADSTNFKVSKTIASALVTVEPGAMRELHWHPNTHEWQYYISGKARMTVFASDGHARTFNYQAGDVGYVPFAMGHYVENIGDEPLVFLEIFKDDHYADVSLNQWLAMLPETFVQAHLDLGKDFTDVLSKEKHPVVKKKCSK
B1 gave a Km (purified protein; [2]) of 1.6 ± 0.7 mM, a kcat (purified protein; [2]) of 0.01 s⁻¹ and a kcat/Km (purified protein; [2]) of 5 M⁻¹ s⁻¹. The Km (purified protein; [3]) was 3 ± 1 mM, the kcat (purified protein; [3]) was 0.05 s⁻¹ and the kcat/Km (purified protein; [3]) was 14 M⁻¹ s⁻¹.

B2: oxalate decarboxylase (OxDC) (Bacillus subtilis subsp. subtilis str. 168) (protein)
chain: MKKQNDIPQPIRGDKGATVKIPRNIERDRQNPDMLVPPETDHGTVSNMKFSFSDTHNRLEKGGYAREVTVRELPISENLASVNMRLKPGAIRELHWHKEAEWAYMIYGSARVTIVDEKGRSFIDDVGEGDLWYFPSGLPHSIQALEEGAEFLLVFDDGSFSENSTFQLTDWLAHTPKEVIAANFGVTKEEISNLPGKEKYIFENQLPGSLKDDIVEGPNGEVPYPFTYRLLEQEPIESEGGKVYIADSTNFKVSKTIASALVTVEPGAMRELHWHPNTHEWQYYISGKARMTVFASDGHARTFNYQAGDVGYVPFAMGHYVENIGDEPLVFLEIFKDDHYADVSLNQWLAMLPETFVQAHLDLGKDFTDVLSKEKHPVVKKKCSK
B2 gave a Km (purified protein; [4]) of 8 ± 1 mM, a kcat (purified protein; [4]) of 60 s⁻¹ and a kcat/Km (purified protein; [4]) of 5700 M⁻¹ s⁻¹. For the same molecule, the Km (purified protein; [5]) was 5.0 ± 0.2 mM, the kcat (purified protein; [5]) was 0.13 s⁻¹ and the kcat/Km (purified protein; [5]) was 19 M⁻¹ s⁻¹.

B3: oxalate decarboxylase (OxDC) (Bacillus subtilis subsp. subtilis str. 168; S161D) (protein)
chain: B2 chain with S161D
In the case of B3, the Km (purified protein; [6]) is reported as 10 ± 1 mM, the kcat (purified protein; [6]) is reported as 63 s⁻¹ and the kcat/Km (purified protein; [6]) is reported as 3900 M⁻¹ s⁻¹.

B4: oxalate decarboxylase (OxDC) (Bacillus subtilis subsp. subtilis str. 168; E162D/S161D) (protein)
chain: B2 chain with S161D, E162D
B4 showed a Km (purified protein; [7]) of 10 ± 2 mM, a kcat (purified protein; [7]) of 45 s⁻¹ and a kcat/Km (purified protein; [7]) of 2900 M⁻¹ s⁻¹.

B5: oxalate decarboxylase (OxDC) (Bacillus subtilis subsp. subtilis str. 168; E162D/N163S/S161D/S164N) (protein)
chain: B2 chain with S161D, E162D, N163S, S164N
B5 showed a Km (purified protein; [8]) of 3 ± 1 mM, a kcat (purified protein; [8]) of 9 s⁻¹ and a kcat/Km (purified protein; [8]) of 2400 M⁻¹ s⁻¹.

B6: oxalate decarboxylase (OxDC) (Bacillus subtilis subsp. subtilis str. 168; N163S/S161D/S164N) (protein)
chain: B2 chain with S161D, N163S, S164N
B6 gave a Km (purified protein; [9]) of 6 ± 1 mM, a kcat (purified protein; [9]) of 40 s⁻¹ and a kcat/Km (purified protein; [9]) of 4400 M⁻¹ s⁻¹. It also gave a Km (purified protein; [10]) of 11 ± 2 mM, a kcat (purified protein; [10]) of 0.1 s⁻¹ and a kcat/Km (purified protein; [10]) of 11 M⁻¹ s⁻¹.
